Test results from publication PMC8451464.

Molecular target: papain (UniProt P00784)
UniProt P00784, sequence (P00784 134-345): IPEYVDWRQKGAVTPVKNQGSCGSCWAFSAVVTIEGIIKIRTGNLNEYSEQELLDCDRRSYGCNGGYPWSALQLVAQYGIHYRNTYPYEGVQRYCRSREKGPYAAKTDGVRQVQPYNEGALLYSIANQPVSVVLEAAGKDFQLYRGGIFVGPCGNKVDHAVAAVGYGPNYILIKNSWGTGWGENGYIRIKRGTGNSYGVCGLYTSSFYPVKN

In the case of His-SSPbP53 (natural protein), the degradation of fluorescein-labeled casein by papain (100 μg/mL) with His-SSPbP53 at 100 and 500 nM, 1 h at room temperature (% reduction of activity) is reported as greater than 50.
